Stoichiometry N data for one molecule are collected here from publication PMC2120794.

A word on the stoichiometry N: it is the number of molecules, sites or subunits per partner or assembly.

Some results are limits rather than exact numbers.

In this test the target is type I collagen (triple helix). Put plainly: SPR. The settings on record: scale: molecules of HSP47 per triple helix of type I collagen.

B1: recombinant mouse HSP47 (natural protein)
chain: AEVKKPLEAAAPGTAEKLSSKATTLAERSTGLAFSLYQAMAKDQAVENILLSPLVVASSLGLVSLGGKATTASQAKAVLSAEKLRDEEVHTGLGELLRSLSNSTARNVTWKLGSRLYGPSSVSFADDFVRSSKQHYNCEHSKINFRDKRSALQSINEWASQTTDGKLPEVTKDVERTDGALLVNAMFFKPHWDEKFHHKMVDNRGFMVTRSYTVGVTMMHRTGLYNYYDDEKEKLQMVEMPLAHKLSSLIILMPHHVEPLERLEKLLTKEQLKAWMGKMQKKAVAISLPKGVVEVTHDLQKHLAGLGLTEAIDKNKADLSRMSGKKDLYLASVFHATAFEWDTEGNPFDQDIYGREELRSPKLFYADHPFIFLVRDNQSGSLLFIGRLVRPKGDKMRDEL
For B1, the stoichiometry N is > 7.
